Measurements reported in article PMC8654288, “Structural basis of DegP protease temperature-dependent activation” (Science Advances, 2021).
Residue numbers refer to the chain shown, from its start. Numbers in names are those of the source. Where “and” joins values, the source holds several entries; their conditions need not be identical. Identical values can stand only once. No end group written: not given here. NO3 = not defined here

T1: DegP PDZ1 domain (DegP^261-354) (E. coli K12, UniProt P0C0V0 287-380)
T1 construct: DegP protease, E. coli K12, PDZ1 domain, residues 261-354; numbers count on: the mature protein; [U-15N]-labelled when observed in NMR titrations; also called pDS10; source: E. coli BL21 Star (λ DE3), purified (Ni2+ Sepharose, SENP1 cleavage, Superdex 75 Increase SEC); not shown: His6-SUMO, N-terminal, cleaved
T1 sequence (looked up): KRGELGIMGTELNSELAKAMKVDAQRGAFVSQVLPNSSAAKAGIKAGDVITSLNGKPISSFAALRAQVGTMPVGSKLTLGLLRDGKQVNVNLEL

T2: biotinylated PDZ1 domain (E. coli K12, UniProt P0C0V0 287-380, biotin (EZ-Link NHS-PEG4-Biotin, molar ratio 1:1 at pH 6.0 to ensure preferential labeling of the N-terminal α-amino group))
T2 construct: DegP protease, E. coli K12, PDZ1 domain, residues 261-354; numbers count on: the mature protein; m5 after biotinylation; immobilised on streptavidin biosensors; source: E. coli BL21 Star (λ DE3), purified, then biotinylated (EZ-Link NHS-PEG4-Biotin); not shown: His6-SUMO, N-terminal, cleaved
T2 sequence (looked up): T1 sequence (looked up)

T3: DegP^S210A,Y444A (E. coli K12), P0C0V0
T3 chain: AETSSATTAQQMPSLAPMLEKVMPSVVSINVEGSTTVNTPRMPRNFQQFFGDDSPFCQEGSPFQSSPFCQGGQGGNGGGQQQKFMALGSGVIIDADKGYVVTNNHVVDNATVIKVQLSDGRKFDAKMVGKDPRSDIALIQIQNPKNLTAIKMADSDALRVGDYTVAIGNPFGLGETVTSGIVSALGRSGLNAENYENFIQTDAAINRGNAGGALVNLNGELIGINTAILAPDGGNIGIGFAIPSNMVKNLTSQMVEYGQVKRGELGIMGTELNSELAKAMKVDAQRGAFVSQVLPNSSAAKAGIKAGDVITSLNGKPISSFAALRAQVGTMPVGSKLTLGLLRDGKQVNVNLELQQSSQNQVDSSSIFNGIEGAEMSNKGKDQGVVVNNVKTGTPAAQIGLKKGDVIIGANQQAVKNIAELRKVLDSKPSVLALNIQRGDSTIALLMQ

B1: DegP PDZ1-PDZ2 domain construct (DegP^261-448) (domain or fragment, E. coli K12, UniProt P0C0V0 287-474, looked up)
chain: KRGELGIMGTELNSELAKAMKVDAQRGAFVSQVLPNSSAAKAGIKAGDVITSLNGKPISSFAALRAQVGTMPVGSKLTLGLLRDGKQVNVNLELQQSSQNQVDSSSIFNGIEGAEMSNKGKDQGVVVNNVKTGTPAAQIGLKKGDVIIGANQQAVKNIAELRKVLDSKPSVLALNIQRGDSTIYLLMQ
notes: DegP protease, E. coli K12, PDZ1-PDZ2 domains, residues 261-448; numbers count on: the mature protein; Isotope-labelled for NMR; also called PDZ1-PDZ2 bidomain; pDS12; source: E. coli BL21 Star (λ DE3), purified (Ni2+ Sepharose, SENP1 cleavage, Superdex 75 Increase SEC); not shown: His6-SUMO, N-terminal, cleaved
B2: biotinylated PDZ2 domain (domain or fragment, E. coli K12, UniProt P0C0V0 385-474, looked up)
chain: QNQVDSSSIFNGIEGAEMSNKGKDQGVVVNNVKTGTPAAQIGLKKGDVIIGANQQAVKNIAELRKVLDSKPSVLALNIQRGDSTIYLLMQ
modifications: biotin (EZ-Link NHS-PEG4-Biotin, molar ratio 1:1 at pH 6.0 to ensure preferential labeling of the N-terminal α-amino group)
notes: DegP protease, E. coli K12, PDZ2 domain, residues 359-448; numbers count on: the mature protein; m6 after biotinylation; immobilised on streptavidin biosensors; source: E. coli BL21 Star (λ DE3), purified, then biotinylated (EZ-Link NHS-PEG4-Biotin); not shown: His6-SUMO, N-terminal, cleaved
B3: DegP PDZ2 domain (DegP^359-448) (domain or fragment, E. coli K12, UniProt P0C0V0 385-474, looked up)
chain: B2 chain
notes: DegP protease, E. coli K12, PDZ2 domain, residues 359-448; numbers count on: the mature protein; [U-15N]-labelled when observed in NMR titrations; also called pDS11; source: E. coli BL21 Star (λ DE3), purified (Ni2+ Sepharose, SENP1 cleavage, Superdex 75 Increase SEC); not shown: His6-SUMO, N-terminal, cleaved
B4: p23 peptide (Abz-GNWVSAAKFETYR^NO3SKNTQDYGILQI) (peptide)
peptide: Abz-GNWVSAAKFETYR(NO3)SKNTQDYGILQI
modifications: reading uncertain; also: printed as Abz-GNWVSAAKFETYR^NO3^SKNTQDYGILQI
notes: The superscript probably marks a nitrotyrosine quencher at Y12; also called fluorescent p23 peptide; source: synthetic peptide, bought: GenScript
B5: DegP^S210A,Y444A, P0C0V0 27-474 (enzyme)
chain: T3 chain
B6: DegP^S210A,M280A (enzyme, E. coli K12, UniProt P0C0V0 27-474, looked up)
chain: T3 chain with M280A, A444Y
notes: numbers count on: the mature protein
B7: DegP^S210A,M280I (enzyme, E. coli K12, UniProt P0C0V0 27-474, looked up)
chain: T3 chain with M280I, A444Y
notes: as for B6
B8: DegP^S210A (full-length DegP, active site serine mutated) (enzyme, E. coli K12, UniProt P0C0V0 27-474, looked up)
chain: T3 chain with A444Y
notes: numbers count on: the mature protein; Isotope-labelled for NMR ([U-2H,15N] or [U-2H, Ile-d1-13CH3]); also called full-length DegP^S210A

Key:
[1] = target: the molecule itself; assay: NMR line broadening and peak intensities ([13C,1H] spectra of side chains); [U-13C,15N]-PDZ1-PDZ2 alone at 25° to 50°C; Y444 Cα and ring resonances, M280 ε-methyl open and locked states
[2] = target: T1, DegP PDZ1 domain (DegP^261-354); assay: BLI; Octet RED96, 25°C; biotinylated PDZ2 on streptavidin biosensors, PDZ1 as analyte; steady-state analysis; 0.1% BSA, 0.05% Tween 20; association 30 s, dissociation 40 s; conditions: both partners purified
biotinylated PDZ1 domain = target: T2, biotinylated PDZ1 domain; assay: BLI; Octet RED96, 25°C; biotinylated PDZ1 on streptavidin biosensors, PDZ2 as analyte; initial tests; conditions: both partners purified
[3] = target: B1; assay: NMR titration; substrates (p23, β-casein, nonactivating reporter peptide) added to the DegP PDZ domains (fig. S12); β-casein up to half equimolar ratio; conditions: both partners purified
[4] = target: T3, DegP^S210A,Y444A (E. coli K12), P0C0V0; assay: NMR pulsed field gradient diffusion (13C-methyl-filtered); [U-2H, Ile-δ1-13CH3]-DegP samples at 25°C; NMR buffer 25 mM potassium phosphate, 1 mM EDTA, 1 mM TCEP pH 7.0; oligomeric state from viscosity- and temperature-corrected translational diffusion coefficient against a calibration curve; hexamer to trimers; conditions: remark: other sources report otherwise
[5] = target: T3, DegP^S210A,Y444A (E. coli K12), P0C0V0; assay: SEC; full-length DegP^S210A variants alone; 8°C stated for DegP^S210A,Y444A; trimer and hexamer species; conditions: remark: other sources report otherwise
[6] = target: the molecule itself; assay: as above
[7] = target: the molecule itself; assay: NMR pulsed field gradient diffusion (13C-methyl-filtered); DegP^S210A,M280I, temperature series (fig. S1, K and L); hexamer to trimers
[8] = target: the molecule itself; assay: NMR pulsed field gradient diffusion (13C-methyl-filtered); [U-2H, Ile-δ1-13CH3]-DegP samples at 43° and 50°C; NMR buffer pH 7.0; hexamer to trimers
[9] = target: the molecule itself; assay: NMR pulsed field gradient diffusion (13C-methyl-filtered); [U-2H, Ile-δ1-13CH3]-DegP samples at 25°C; NMR buffer 25 mM potassium phosphate, 1 mM EDTA, 1 mM TCEP pH 7.0; oligomeric state from viscosity- and temperature-corrected translational diffusion coefficient against a calibration curve; hexamer to trimers

Binder: B1
ratio of open to locked state of M280 at 37°C [1]: 1
stoichiometry N [1]: 2

Binder: B2
Kd [2]: 7.8 ± 0.9 µM

Binder: B3
fold weakening of Kd against PDZ1 on biotinylated PDZ2 (biotinylated PDZ1 domain): ~10 fold

Binder: B4
binding result [3]: binds

Binder: B5
stoichiometry N [4]: 3
stoichiometry N [5]: 3 and 6

Binder: B6
stoichiometry N [6]: 3 and 6

Binder: B7
binding result [7]: binds

Binder: B8
stoichiometry N [8]: 3
stoichiometry N [9]: 6
